We go through 1 protein from PMC4103548, “Expression, and Molecular and Enzymatic Characterization of Cu-Containing Nitrite Reductase from a Marine Ammonia-Oxidizing Gammaproteobacterium, Nitrosococcus oceani” (Microbes and Environments, 2012).

The term Km denotes the concentration of substrate that gives half-maximal velocity. For orientation: kcat means the number of substrate molecules converted per active site and unit of time at saturation.

Substrate in the data set: O=NO
As to the kind of experiment: nitrite consumption, diazo-coupling colorimetric assay; Hanes-Woolf plot. It is filed as biochemical, Nitrosococcus oceani. The settings on record: reduced methylviologen (dithionite) as electron donor, pH 5.5 (optimal), 30 mM CPT buffer, 37°C, under mineral oil, kcat per subunit.

B1: Cu-containing nitrite reductase (recombinant NirK) from Nitrosococcus oceani NS58 (Nitrosococcus oceani ATCC 19707) (protein)
chain: ADGEASSYIANIGTHANLKDLERVRQELVAPPHLPDHQQAYSGKPRIVEIEMVIEEKEVEIEPNVFVQAMTFNGTNPGPIIVVHEGDYVELTLKNLDTNMLLHNIDFHPATGALGGGALTKVAPGQQVTLRFKADKAGTYVYHCAPGGLMTPYHVVSGMYGAIMIFPKKGLRDQNGKKVTYDKAYYVGEQGWYIPKDKNGKYKRYANAIEPYGDTLEVMRGLVPTHVTYNGSKGALTGDNAMKAKVGDSVLFIHSQANEDSRIHLIGGHGDLVWPGGSFKNTPMVDKETWHVNGGESVAALYTFKQPGLYAYLNHNLIQAFMLGGAAHVKVDGEWNNDLMEQVVKPSPINAD
As to B1, the Km came to 52 µM and the kcat stood at 1600 s⁻¹.
